Source: US8846861B2, “Peptide clearing agents” (Mologic Ltd, priority 2009, dated 2014)

Test system: CCL 229 (LoVo) CEA expressing cell line
Test: Flow cytometry cell binding, CEA expressing cell line
Format: cell-based
Settings: CCL 229, PE label, 1 hour at 4° C.
Description: Measurement by Flow Cytometry of Binding Capability of scFv Anti-CEA-CPG2 Using CEA Expressing Cells.
CRL 1573—control cell line, CCL 229 (LoVo)—CEA expressing cell line
Cultured cells were both used at 2×10^5 cells per tube, cells in tubes were prepared to contain the following
Cells were spun down and 100 μl of antibody solution was added to respective tube. 100 μl buffer was added to tubes 1 and 2 and left in fridge until later.
Tubes were incubated in the dark at 4° C. for 1 hour, add 1 ml PBSAB and spun as above. Include tube 1 in this wash. The supernatant was removed and 100 μl conjugate was added to tube 6 for a further incubation of 1 hr in the dark at 4° C.
Added 150 μl 0.5% formaldehyde to tubes 1, 3, 4 and 5, stored in the fridge until measured (˜2 hours). Washed tube 6 as before and add formaldehyde to this tube. 30 minutes before measuring add 100 μl Propidium Iodine to tube 2, before measuring, added 1 ml of PBS to all samples.

B1: CPG2 control: carboxypeptidase G2 conjugated to phycoerythrin, control without anti-CEA part (protein)
chain: ALAQKRDNVLFQAATDEQPAVIKTLEKLVNIETGTGDAEGIAAAGNFLEAELKNLGFTVTRSKSAGLVVGDNIVGKIKGRGGKNLLLMSHMDTVYLKGILAKAPFRVEGDKAYGPGIADDKGGNAVILHTLKLLKEYGVRDYGTITVLFNTDEEKGSFGSRDLIQEEAKLADYVLSFEPTSAGDEKLSLGTSGIAYVQVNITGKASHAGAAPELGVNALVEASDLVLRTMNIDDKAKNLRFNWTIAKAGNVSNIIPASATLNADVRYARNEDFDAAMKTLEERAQQKKLPEADVKVIVTRGRPAFNAGEGGKKLVDKAVAYYKEAGGTLGVEERTGGGTDAAYAALSGKPVIESLGLPGFGYHSDKAEYVDISAIPRRLYMAARLIMDLGAGK
binding to cells by flow cytometry (in words): does not bind
